Target: T1, β-klotho (UniProt Q99N32)
T1 sequence: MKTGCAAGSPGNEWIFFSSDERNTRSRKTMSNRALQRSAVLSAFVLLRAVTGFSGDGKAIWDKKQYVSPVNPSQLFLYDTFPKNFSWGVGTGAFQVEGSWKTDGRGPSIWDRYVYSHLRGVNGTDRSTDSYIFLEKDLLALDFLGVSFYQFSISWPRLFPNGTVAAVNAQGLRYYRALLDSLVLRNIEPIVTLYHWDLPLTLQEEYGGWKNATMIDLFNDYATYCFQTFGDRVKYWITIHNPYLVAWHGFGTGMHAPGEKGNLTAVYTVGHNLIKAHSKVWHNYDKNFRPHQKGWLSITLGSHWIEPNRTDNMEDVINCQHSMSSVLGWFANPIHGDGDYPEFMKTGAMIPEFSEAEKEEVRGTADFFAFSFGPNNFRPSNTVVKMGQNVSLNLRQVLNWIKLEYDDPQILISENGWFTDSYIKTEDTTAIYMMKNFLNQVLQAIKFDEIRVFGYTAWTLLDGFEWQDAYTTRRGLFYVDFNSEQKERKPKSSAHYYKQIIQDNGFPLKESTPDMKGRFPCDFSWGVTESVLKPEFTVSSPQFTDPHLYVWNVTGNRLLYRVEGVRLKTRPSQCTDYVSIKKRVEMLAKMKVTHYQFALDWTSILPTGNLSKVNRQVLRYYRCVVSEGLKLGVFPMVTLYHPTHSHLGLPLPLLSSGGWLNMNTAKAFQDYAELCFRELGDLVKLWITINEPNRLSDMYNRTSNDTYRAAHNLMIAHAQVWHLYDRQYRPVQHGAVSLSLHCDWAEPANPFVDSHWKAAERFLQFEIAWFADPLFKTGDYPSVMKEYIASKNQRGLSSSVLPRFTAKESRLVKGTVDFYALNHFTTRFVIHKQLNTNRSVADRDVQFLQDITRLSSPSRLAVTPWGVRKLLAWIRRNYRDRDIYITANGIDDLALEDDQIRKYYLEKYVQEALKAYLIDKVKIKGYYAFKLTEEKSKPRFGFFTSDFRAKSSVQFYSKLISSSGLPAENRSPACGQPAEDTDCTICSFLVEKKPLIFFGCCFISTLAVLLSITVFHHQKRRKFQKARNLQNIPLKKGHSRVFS

purified human fibroblast growth factor 21 (hFGF21), tag-free after TEV cleavage of MBP-hFGF21 (from UniProt Q9NSA1 29-209) (ligand)
EC50 of proliferation (MTT assay, 24 h) of β-klotho-transfected NIH-3T3 cells, hFGF21 at 0.01-500 ng/mL; untransfected cells showed no proliferative effect (data not shown): 0.3 nM

Reference: PMC5700921
